The source of these data is paper PMC6235537 (Science Advances, 2018).

For orientation: Kd means the constant that tells how readily two partners part at equilibrium.

In one test the target is T1, GM^CBM21 (Oryctolagus cuniculus, UniProt Q00756).
T1 sequence (Q00756 102-237): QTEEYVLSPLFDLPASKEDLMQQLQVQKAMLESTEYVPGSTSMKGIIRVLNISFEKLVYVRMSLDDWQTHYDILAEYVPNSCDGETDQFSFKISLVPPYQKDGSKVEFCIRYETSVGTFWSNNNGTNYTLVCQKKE
Kind of test: ITC. It is filed as binding.

The target of test [1] is T2, His6-tagged PP1α_(7–330) (UniProt P62136 7-330). Nature of the test: ITC. On the technique in general: In ITC the heat of successive injections is recorded.
T2 sequence (P62136 7-330): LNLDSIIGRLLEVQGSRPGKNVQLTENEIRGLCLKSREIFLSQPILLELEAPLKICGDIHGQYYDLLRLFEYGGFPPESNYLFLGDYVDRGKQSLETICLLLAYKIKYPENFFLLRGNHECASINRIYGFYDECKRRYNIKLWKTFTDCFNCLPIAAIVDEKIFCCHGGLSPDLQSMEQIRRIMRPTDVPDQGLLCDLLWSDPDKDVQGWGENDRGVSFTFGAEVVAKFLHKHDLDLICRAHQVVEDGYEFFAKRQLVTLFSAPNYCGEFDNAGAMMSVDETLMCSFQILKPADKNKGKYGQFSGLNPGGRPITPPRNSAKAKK
The next test has as its target His6-tagged PP1α_(7–300) (UniProt P62136 7-300). Kind of test: ITC.
Another test concerns the target His6-tagged PP1β_(6–327) (UniProt P62140 6-327). Kind of test: ITC.
The target in another test is His6-tagged PP1γ_(7–308) (UniProt P36873 7-308). Nature of the test: ITC.
Sequence of His6-tagged PP1γ_(7–308) (P36873 7-308): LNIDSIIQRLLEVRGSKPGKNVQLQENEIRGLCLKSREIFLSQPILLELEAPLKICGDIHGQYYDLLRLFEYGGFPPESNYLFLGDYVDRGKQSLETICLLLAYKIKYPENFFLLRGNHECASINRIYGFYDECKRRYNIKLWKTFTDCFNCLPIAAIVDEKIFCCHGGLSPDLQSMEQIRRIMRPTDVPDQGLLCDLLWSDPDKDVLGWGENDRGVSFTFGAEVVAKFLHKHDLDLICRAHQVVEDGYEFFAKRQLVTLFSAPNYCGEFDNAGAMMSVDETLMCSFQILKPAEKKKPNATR
For the next test, the target named is His6-tagged PP1γ_(7–323) (UniProt P36873 7-323). Nature of the test: ITC.
Sequence of His6-tagged PP1γ_(7–323) (P36873 7-323): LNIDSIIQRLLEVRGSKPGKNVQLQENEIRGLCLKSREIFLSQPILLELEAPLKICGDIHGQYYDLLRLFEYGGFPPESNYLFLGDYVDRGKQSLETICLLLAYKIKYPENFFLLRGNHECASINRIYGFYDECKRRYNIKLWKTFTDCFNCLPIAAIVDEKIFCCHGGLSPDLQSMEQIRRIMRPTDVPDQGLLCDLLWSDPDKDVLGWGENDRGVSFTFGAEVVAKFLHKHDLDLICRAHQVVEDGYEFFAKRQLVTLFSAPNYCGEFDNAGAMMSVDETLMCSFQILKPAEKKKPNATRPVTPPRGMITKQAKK
The target in test [2] is T2, His6-tagged PP1α_(7–330). Nature of the test: SPR.
Test [3] addresses PP1α_(7–300) (as crystallised with GM^64–93 and microcystin-LR) (UniProt P62136 7-300). Nature of the test: crystal structure.

Sequence of His6-tagged PP1α_(7–300) (P62136 7-300): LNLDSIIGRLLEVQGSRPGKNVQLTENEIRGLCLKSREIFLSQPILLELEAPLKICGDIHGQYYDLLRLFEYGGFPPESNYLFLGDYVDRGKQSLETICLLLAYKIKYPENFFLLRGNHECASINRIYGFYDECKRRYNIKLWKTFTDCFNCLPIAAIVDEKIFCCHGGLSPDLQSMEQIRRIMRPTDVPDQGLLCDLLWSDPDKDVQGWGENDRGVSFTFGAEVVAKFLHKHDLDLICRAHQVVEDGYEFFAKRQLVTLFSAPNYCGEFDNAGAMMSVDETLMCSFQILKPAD
Sequence of His6-tagged PP1β_(6–327) (P62140 6-327): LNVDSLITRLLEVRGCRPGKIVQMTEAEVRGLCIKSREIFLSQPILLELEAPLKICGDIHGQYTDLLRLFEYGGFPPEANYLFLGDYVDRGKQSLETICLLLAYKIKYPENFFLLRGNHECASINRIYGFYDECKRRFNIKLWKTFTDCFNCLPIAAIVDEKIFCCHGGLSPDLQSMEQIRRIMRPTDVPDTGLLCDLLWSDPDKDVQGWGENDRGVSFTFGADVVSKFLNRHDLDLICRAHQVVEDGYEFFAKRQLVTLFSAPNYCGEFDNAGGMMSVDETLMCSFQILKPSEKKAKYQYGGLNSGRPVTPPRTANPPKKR
Sequence of PP1α_(7–300) (as crystallised with GM^64–93 and microcystin-LR) (P62136 7-300): as the sequence (P62136 7-300) above

Take `OC[C@H]1O[C@@H]2O[C@H]3[C@H](O)[C@@H](O)[C@@H](O[C@H]4[C@H](O)[C@@H](O)[C@@H](O[C@H]5[C@H](O)[C@@H](O)[C@@H](O[C@H]6[C@H](O)[C@@H](O)[C@@H](O[C@H]7[C@H](O)[C@@H](O)[C@@H](O[C@H]1[C@H](O)[C@H]2O)O[C@@H]7CO)O[C@@H]6CO)O[C@@H]5CO)O[C@@H]4CO)O[C@@H]3CO` [α-CD]: on GM^CBM21, binding was put at a Kd of 27600 nM.
The same measure, in the same setting: then `OC[C@H]1O[C@@H]2O[C@H]3[C@H](O)[C@@H](O)[C@@H](O[C@H]4[C@H](O)[C@@H](O)[C@@H](O[C@H]5[C@H](O)[C@@H](O)[C@@H](O[C@H]6[C@H](O)[C@@H](O)[C@@H](O[C@H]7[C@H](O)[C@@H](O)[C@@H](O[C@H]8[C@H](O)[C@@H](O)[C@@H](O[C@H]1[C@H](O)[C@H]2O)O[C@@H]8CO)O[C@@H]7CO)O[C@@H]6CO)O[C@@H]5CO)O[C@@H]4CO)O[C@@H]3CO` [β-CD], with 8200 ± 100 nM.

B1: GM^2–237 (muscle glycogen-targeting subunit of PP1, PPP1R3A, residues 2 to 237) (domain or fragment)
chain: EPSEVPGQNSKDNFLEVPNLSDSLCEDEEVKAIFKPGFSPQPSRRGSESSEEVYVHTASSGGRRVSFADNFGFNLVSVKEFDTWELPSVSTTFELGKDAFQTEEYVLSPLFDLPASKEDLMQQLQVQKAMLESTEYVPGSTSMKGIIRVLNISFEKLVYVRMSLDDWQTHYDILAEYVPNSCDGETDQFSFKISLVPPYQKDGSKVEFCIRYETSVGTFWSNNNGTNYTLVCQKKE
In the test with His6-tagged PP1α_(7–330) [1], B1 registered a Kd of 26.5 ± 2.3 nM and a dH of -20.2 ± 1 kcal/mol.

B2: GM^64–237 (domain or fragment)
chain: RRVSFADNFGFNLVSVKEFDTWELPSVSTTFELGKDAFQTEEYVLSPLFDLPASKEDLMQQLQVQKAMLESTEYVPGSTSMKGIIRVLNISFEKLVYVRMSLDDWQTHYDILAEYVPNSCDGETDQFSFKISLVPPYQKDGSKVEFCIRYETSVGTFWSNNNGTNYTLVCQKKE
On to B2, for which the Kd in the test with His6-tagged PP1α_(7–300) came to 51 ± 5.1 nM; with His6-tagged PP1β_(6–327), 17.3 ± 4 nM; with His6-tagged PP1γ_(7–308) it was 55.7 ± 5.1 nM; with His6-tagged PP1γ_(7–323) it was 21.4 ± 11.6 nM; with His6-tagged PP1α_(7–330) [1], 20.8 ± 2.4 nM. The dH was -25.1 ± 0.9 kcal/mol in the test with His6-tagged PP1α_(7–300); -15.4 ± 0.8 kcal/mol with His6-tagged PP1β_(6–327); -13.3 ± 5.2 kcal/mol with His6-tagged PP1γ_(7–308); -22.6 ± 0.1 kcal/mol in the test with His6-tagged PP1γ_(7–323); -34.5 ± 2.4 kcal/mol with His6-tagged PP1α_(7–330) [1].
Molecule RRVSFADNFGFNLVSVKEFDTWELPSVSTTFELGKDAFQTEE [GM^64–105 peptide] showed a Kd with His6-tagged PP1α_(7–330) [2] of 114 ± 4 nM.
RRVSFADNFGFNLVSVKEFDTWELPSVSTT [GM^64–93 peptide]: in test [3], the binding result was “binds”.
